Substrate: Cc1c(CC(=O)NCCCC[C@H](NC(=O)CCN)C(=O)O)c(=O)oc2cc(N)ccc12
Experiment: cells, lysate or membranes
Settings: HBSS with 20 mM Hepes, 300 mOsmol/kg (control); fluorescent substrate 0-500 μM

B1: PepT2 (Oreochromis mossambicus) (protein)
chain: MGKKLFGTNYPVSICFIVVNEFCERFSYYGMKALLTLYFLNYLKWDKDLSTAVYHAFSGLCYFTPILGAFIADSWLGKYKTIIYLSIVYVIGHVVKSVGAIPTVGSTELHIALSMSGLILIALGTGGIKPCVAAFGGDQFGEEHITERQKFFSIFYMSINAGSFLSTIITPILRGDVQCFGGDCYALAFGVPAALMVVALVVFIAGSSLYKRTPPQGNILWEVCNCIGFALKNRWNKSKHDSPRQHWLDWAEEKYSMRLIQEIKMVLRVLVLYIPLPMFWALFDQQGSRWTLQATRMNLAFGNSFAIKPDQMQMLNALLILVFVPIFDLIIYPLVRLCGLKITPLRKMAVGMVFAALAFGAATLVEVNVVKTVVNPAPAGKCLLQVVNLAKGDVSLKAPGTDLFLQSIKYLEDPPGYETVPLSNGELNLEVTGVNGETFSATQKVEEKKAYSVIIYPDAAGITYTLVEDHITKNEDGNPLLRFLNTQPEALNVTVGDKNFYMSSGYNVTHNKTVQRGEYTHATCISNSGKTSKLNLGLLDFGACYTVILTEEAGEIVPHKIEDVKANNVHIAYQIPQYILITAGEVMFSITGLEFSYSQAPANMKSVLQAGWLLTVAFGNVIVLIVAEGAGLEQWIEFLLFACLLLGVCIIFSIMAHFYTYVDPEEMEKLYLENSVKEEDDSDFKKKNNEIQLNKTGKSTRM
B1 showed a Km of 178.78 ± 19.78 µM.

Reference: paper PMC10825657
